Source: the supplement of paper PMC6757056
± gives the standard deviation of the averaged measurements.

B1: library; a variant is named by its letters at N, in order (parent)
chain: GCUGUCACCGGUGUAUUACCCUAGUGGUCGACCGGUCUGAUGAGUCUNNNNNNAGACGAAACAGC

Columns and labels:
hypoxanthine [1] = variants of: B1; assay: FACS-Seq fitted mean relative fluorescence mCherry/BFP without ligand (log10 relative fluorescence); ligand: hypoxanthine (xanthine aptamer); higher = higher reporter protein expression; conditions: HEK293T, ligand present: no
Summary of the method: (§1)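 To measure fluorescence, a normal distribution was fitted to read counts across sorted bins. The reporter libraries were HEK293T cells transduced by lentivirus with mCherry under ribozyme-switch control and an EF1α-BFP marker, enriched and then kept with or without ligand for 48 h. Sorting used 6 mCherry/BFP bins, and bin genomic DNA was PCR-amplified and sequenced on MiSeq. Fitted means of log10(mCherry/BFP) were scaled to five spiked-in control ribozymes.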

hypoxanthine [2] = variants of: B1; assay: normalized RNA/DNA level with ligand (relative to sTRSVctl = 100) (log10 (% of sTRSVctl)); ligand: hypoxanthine (xanthine aptamer); higher = less ribozyme self-cleavage, higher mRNA level; conditions: ligand concentration (+) RNA-Seq: 5 mM, HEK293T, reporter: mCherry (pCS4076), ligand present: yes
Summary of the method: (§2)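 Ribozyme switch library plasmids linked to reporters were introduced into HEK293T cells at 4 µg per 6-well well, with ligand, if any, added 1 h before. Total RNA was extracted with EDTA 72 h later, reverse-transcribed, amplified, barcoded and sequenced. RNA level was computed from RNA over DNA reads relative to a spiked-in non-cleaving sequence or the top sequences, then scaled and log-transformed. The top set was 25 sequences, values were ×100 and log10, and the cutoff was ≥100 DNA reads.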

hypoxanthine [3] = variants of: B1; assay: normalized RNA/DNA level without ligand (relative to sTRSVctl = 100) (log10 (% of sTRSVctl)); ligand: hypoxanthine (xanthine aptamer); higher = less ribozyme self-cleavage, higher mRNA level; conditions: HEK293T, reporter: mCherry (pCS4076), ligand present: no
Summary of the method: as §2

hypoxanthine [4] = variants of: B1; assay: FACS-Seq fitted mean relative fluorescence mCherry/BFP with ligand (log10 relative fluorescence); ligand: hypoxanthine (xanthine aptamer); ligand concentration (+) FACS-Seq: 5 mM; higher = higher reporter protein expression; conditions: HEK293T, ligand present: yes
Summary of the method: as §1

## GCUGUCACCGGUGUAUUACCCUAGUGGUCGACCGGUCUGAUGAGUCUAUCCCGAGACGAAACAGC [AUCCCG]
Hypoxanthine [1]
  FACS-Seq fitted mean (log10): 0.0616 ± 0.017
Hypoxanthine [2]
  normalized RNA/DNA level with ligand (log10): 1.86 ± 0.04
Hypoxanthine [3]
  normalized RNA/DNA level without ligand (log10): 1.51 ± 0.11
Hypoxanthine [4]
  FACS-Seq fitted mean (log10): 0.148 ± 0.14

## GCUGUCACCGGUGUAUUACCCUAGUGGUCGACCGGUCUGAUGAGUCUAUCCGCAGACGAAACAGC [AUCCGC]
Hypoxanthine [1]
  FACS-Seq fitted mean (log10): 0.3452 ± 0.0029
Hypoxanthine [2]
  normalized RNA/DNA level with ligand (log10): 1.931 ± 0.011
Hypoxanthine [3]
  normalized RNA/DNA level without ligand (log10): 1.8 ± 0.024
Hypoxanthine [4]
  FACS-Seq fitted mean (log10): 0.517 ± 0.049

## GCUGUCACCGGUGUAUUACCCUAGUGGUCGACCGGUCUGAUGAGUCUAUCCGAAGACGAAACAGC [AUCCGA]
Hypoxanthine [1]
  FACS-Seq fitted mean (log10): 0.296 ± 0.067
Hypoxanthine [2]
  normalized RNA/DNA level with ligand (log10): 1.92 ± 0.014
Hypoxanthine [3]
  normalized RNA/DNA level without ligand (log10): 1.758 ± 0.012
Hypoxanthine [4]
  FACS-Seq fitted mean (log10): 0.5594 ± 0.0019

## GCUGUCACCGGUGUAUUACCCUAGUGGUCGACCGGUCUGAUGAGUCUAUCCAUAGACGAAACAGC [AUCCAU]
Hypoxanthine [1]
  FACS-Seq fitted mean (log10): 0.676 ± 0.075
Hypoxanthine [2]
  normalized RNA/DNA level with ligand (log10): 1.96 ± 0.015
Hypoxanthine [3]
  normalized RNA/DNA level without ligand (log10): 1.86 ± 0.032
Hypoxanthine [4]
  FACS-Seq fitted mean (log10): 0.6901 ± 0.0038

## GCUGUCACCGGUGUAUUACCCUAGUGGUCGACCGGUCUGAUGAGUCUUUCCCGAGACGAAACAGC [UUCCCG]
Hypoxanthine [1]
  FACS-Seq fitted mean (log10): 0.397 ± 0.063
Hypoxanthine [2]
  normalized RNA/DNA level with ligand (log10): 1.919 ± 0.0045
Hypoxanthine [3]
  normalized RNA/DNA level without ligand (log10): 1.83 ± 0.046
Hypoxanthine [4]
  FACS-Seq fitted mean (log10): 0.514 ± 0.064

## GCUGUCACCGGUGUAUUACCCUAGUGGUCGACCGGUCUGAUGAGUCUUUCCUGAGACGAAACAGC [UUCCUG]
Hypoxanthine [1]
  FACS-Seq fitted mean (log10): -0.284 ± 0.019
Hypoxanthine [2]
  normalized RNA/DNA level with ligand (log10): 1.93 ± 0.041
Hypoxanthine [3]
  normalized RNA/DNA level without ligand (log10): 1.756 ± 0.0019
Hypoxanthine [4]
  FACS-Seq fitted mean (log10): -0.379 ± 0.12

## GCUGUCACCGGUGUAUUACCCUAGUGGUCGACCGGUCUGAUGAGUCUUUCGAAAGACGAAACAGC [UUCGAA]
Hypoxanthine [1]
  FACS-Seq fitted mean (log10): 0.708 ± 0.021
Hypoxanthine [2]
  normalized RNA/DNA level with ligand (log10): 1.938 ± 0.0037
Hypoxanthine [3]
  normalized RNA/DNA level without ligand (log10): 1.7 ± 0.045
Hypoxanthine [4]
  FACS-Seq fitted mean (log10): 0.716 ± 0.059

## GCUGUCACCGGUGUAUUACCCUAGUGGUCGACCGGUCUGAUGAGUCUCUCGAAAGACGAAACAGC [CUCGAA]
Hypoxanthine [1]
  FACS-Seq fitted mean (log10): 0.449 ± 0.073
Hypoxanthine [2]
  normalized RNA/DNA level with ligand (log10): 1.92 ± 0.068
Hypoxanthine [3]
  normalized RNA/DNA level without ligand (log10): 1.75 ± 0.037
Hypoxanthine [4]
  FACS-Seq fitted mean (log10): 0.395 ± 0.041

## GCUGUCACCGGUGUAUUACCCUAGUGGUCGACCGGUCUGAUGAGUCUCUCGAUAGACGAAACAGC [CUCGAU]
Hypoxanthine [1]
  FACS-Seq fitted mean (log10): 0.5204 ± 0.0026
Hypoxanthine [2]
  normalized RNA/DNA level with ligand (log10): 1.93 ± 0.017
Hypoxanthine [3]
  normalized RNA/DNA level without ligand (log10): 1.83 ± 0.081
Hypoxanthine [4]
  FACS-Seq fitted mean (log10): 0.642 ± 0.061

## GCUGUCACCGGUGUAUUACCCUAGUGGUCGACCGGUCUGAUGAGUCUGUCGAAAGACGAAACAGC [GUCGAA]
Hypoxanthine [1]
  FACS-Seq fitted mean (log10): 0.322 ± 0.039
Hypoxanthine [2]
  normalized RNA/DNA level with ligand (log10): 1.92 ± 0.034
Hypoxanthine [3]
  normalized RNA/DNA level without ligand (log10): 1.69 ± 0.021
Hypoxanthine [4]
  FACS-Seq fitted mean (log10): 0.22 ± 0.072

## GCUGUCACCGGUGUAUUACCCUAGUGGUCGACCGGUCUGAUGAGUCUGUCGACAGACGAAACAGC [GUCGAC]
Hypoxanthine [1]
  FACS-Seq fitted mean (log10): 0.245 ± 0.035
Hypoxanthine [2]
  normalized RNA/DNA level with ligand (log10): 1.92 ± 0.031
Hypoxanthine [3]
  normalized RNA/DNA level without ligand (log10): 1.68 ± 0.033
Hypoxanthine [4]
  FACS-Seq fitted mean (log10): 0.428 ± 0.1

## GCUGUCACCGGUGUAUUACCCUAGUGGUCGACCGGUCUGAUGAGUCUGUCGAGAGACGAAACAGC [GUCGAG]
Hypoxanthine [1]
  FACS-Seq fitted mean (log10): 0.248 ± 0.065
Hypoxanthine [2]
  normalized RNA/DNA level with ligand (log10): 1.81 ± 0.062
Hypoxanthine [3]
  normalized RNA/DNA level without ligand (log10): 1.41 ± 0.072
Hypoxanthine [4]
  FACS-Seq fitted mean (log10): 0.65 ± 0.073

## GCUGUCACCGGUGUAUUACCCUAGUGGUCGACCGGUCUGAUGAGUCUAUCCUGAGACGAAACAGC [AUCCUG]
Hypoxanthine [1]
  FACS-Seq fitted mean (log10): 0.0565 ± 0.03
Hypoxanthine [2]
  normalized RNA/DNA level with ligand (log10): 1.944 ± 0.013
Hypoxanthine [3]
  normalized RNA/DNA level without ligand (log10): 1.54 ± 0.086
Hypoxanthine [4]
  FACS-Seq fitted mean (log10): 0.437 ± 0.048

## GCUGUCACCGGUGUAUUACCCUAGUGGUCGACCGGUCUGAUGAGUCUAUCCUCAGACGAAACAGC [AUCCUC]
Hypoxanthine [1]
  FACS-Seq fitted mean (log10): -0.169 ± 0.0024
Hypoxanthine [2]
  normalized RNA/DNA level with ligand (log10): 2.021 ± 0.0097
Hypoxanthine [3]
  normalized RNA/DNA level without ligand (log10): 1.97 ± 0.04
Hypoxanthine [4]
  FACS-Seq fitted mean (log10): -0.394 ± 0.056

## GCUGUCACCGGUGUAUUACCCUAGUGGUCGACCGGUCUGAUGAGUCUGUCCAGAGACGAAACAGC [GUCCAG]
Hypoxanthine [1]
  FACS-Seq fitted mean (log10): 0.3111 ± 0.00085
Hypoxanthine [2]
  normalized RNA/DNA level with ligand (log10): 1.863 ± 0.015
Hypoxanthine [3]
  normalized RNA/DNA level without ligand (log10): 1.48 ± 0.054
Hypoxanthine [4]
  FACS-Seq fitted mean (log10): 0.723 ± 0.0074

## GCUGUCACCGGUGUAUUACCCUAGUGGUCGACCGGUCUGAUGAGUCUCUCCAUAGACGAAACAGC [CUCCAU]
Hypoxanthine [1]
  FACS-Seq fitted mean (log10): -0.247 ± 0.08
Hypoxanthine [2]
  normalized RNA/DNA level with ligand (log10): 1.96 ± 0.023
Hypoxanthine [3]
  normalized RNA/DNA level without ligand (log10): 1.8932 ± 0.0013
Hypoxanthine [4]
  FACS-Seq fitted mean (log10): 0.134 ± 0.038

## GCUGUCACCGGUGUAUUACCCUAGUGGUCGACCGGUCUGAUGAGUCUAUCGAGAGACGAAACAGC [AUCGAG]
Hypoxanthine [1]
  FACS-Seq fitted mean (log10): 0.2633 ± 0.00067
Hypoxanthine [2]
  normalized RNA/DNA level with ligand (log10): 1.793 ± 0.014
Hypoxanthine [3]
  normalized RNA/DNA level without ligand (log10): 1.35 ± 0.044
Hypoxanthine [4]
  FACS-Seq fitted mean (log10): 0.4 ± 0.028

## GCUGUCACCGGUGUAUUACCCUAGUGGUCGACCGGUCUGAUGAGUCUAUCGACAGACGAAACAGC [AUCGAC]
Hypoxanthine [1]
  FACS-Seq fitted mean (log10): 0.449 ± 0.044
Hypoxanthine [2]
  normalized RNA/DNA level with ligand (log10): 1.95 ± 0.063
Hypoxanthine [3]
  normalized RNA/DNA level without ligand (log10): 1.81 ± 0.054
Hypoxanthine [4]
  FACS-Seq fitted mean (log10): 0.415 ± 0.12

## GCUGUCACCGGUGUAUUACCCUAGUGGUCGACCGGUCUGAUGAGUCUAUCGAUAGACGAAACAGC [AUCGAU]
Hypoxanthine [1]
  FACS-Seq fitted mean (log10): 0.371 ± 0.032
Hypoxanthine [2]
  normalized RNA/DNA level with ligand (log10): 1.9 ± 0.025
Hypoxanthine [3]
  normalized RNA/DNA level without ligand (log10): 1.669 ± 0.0035
Hypoxanthine [4]
  FACS-Seq fitted mean (log10): 0.284 ± 0.033

## GCUGUCACCGGUGUAUUACCCUAGUGGUCGACCGGUCUGAUGAGUCUGUCCCGAGACGAAACAGC [GUCCCG]
Hypoxanthine [1]
  FACS-Seq fitted mean (log10): 0.415 ± 0.0031
Hypoxanthine [2]
  normalized RNA/DNA level with ligand (log10): 1.91 ± 0.0099
Hypoxanthine [3]
  normalized RNA/DNA level without ligand (log10): 1.64 ± 0.12
Hypoxanthine [4]
  FACS-Seq fitted mean (log10): 0.511 ± 0.028

## GCUGUCACCGGUGUAUUACCCUAGUGGUCGACCGGUCUGAUGAGUCUGUCCGGAGACGAAACAGC [GUCCGG]
Hypoxanthine [1]
  FACS-Seq fitted mean (log10): 0.2204 ± 0.002
Hypoxanthine [2]
  normalized RNA/DNA level with ligand (log10): 1.9355 ± 0.0013
Hypoxanthine [3]
  normalized RNA/DNA level without ligand (log10): 1.64 ± 0.081
Hypoxanthine [4]
  FACS-Seq fitted mean (log10): 0.524 ± 0.11
